From US20250043302A1, “MUTATED HYDROXYPHENYLPYRUVATE DIOXYGENASE POLYPEPTIDE, AND CODING GENE AND USE THEREOF” (BEIJING DABEINONG BIOTECHNOLOGY CO., LTD., priority 2021, published 2025)

How the values were obtained:
Type in all cases: in vivo
[1] = tested on: Arabidopsis thaliana T1 plants; experiment: Topramezone tolerance of transgenic Arabidopsis thaliana T1 plants (spray, bleached leaf area grade, damage score); settings: for Classification and statistics of the grade of pesticide damage: Grade 0 / Classification and statistics of the grade of pesticide damage: Grade 1 / Classification and statistics of the grade of pesticide damage: Grade 2 / Classification and statistics of the grade of pesticide damage: Grade 3: number of plants; for Classification and statistics of the grade of pesticide damage: Grade 0 / Classification and statistics of the grade of pesticide damage: Grade 1 / Classification and statistics of the grade of pesticide damage: Grade 2 / Classification and statistics of the grade of pesticide damage: Grade 3 / Scores / Resistance evaluation: 7 DAT, Table 1; for Scores: pesticide damage score 0-100
Excerpt: T1 transformants were initially selected from the untransformed seeds using a glufosinate selection scheme. The Arabidopsis thaliana T1 plants (AsHPPD-02) into which the AsHPPD-02 nucleotide sequence was introduced, the Arabidopsis thaliana T1 plants (AsHPPDm-F372A-02) into which the AsHPPDm-F372A-02 nucleotide sequence was introduced, the Arabidopsis thaliana T1 plants (AsHPPDm-F383W-02) into which the AsHPPDm-F383W-02 nucleotide sequence was introduced, the Arabidopsis thaliana T1 plants (AsHPPDm-F372A-F383W-02) into which the AsHPPDm-F372A-F383W-02 nucleotide sequence was introduced, the Arabidopsis thaliana T1 plants (DBN11726N) into which the control recombinant expression vector DBN11726N was introduced, and the wild-type Arabidopsis thaliana plants (CK) (18 days after sowing) were sprayed respectively with topramezone at three concentrations (100 g ai/ha (four-fold field concentration, 4×), 200 g ai/ha (eight-fold field concentration, 8×), and 0 g ai/ha (water, 0×)), isoxaflutole at three concentrations (140 g ai/ha (two-fold field concentration, 2×), 280 g ai/ha (four-fold field concentration, 4×), and 0 g ai/ha (water, 0×)), and mesotrione at three concentrations (210 g ai/ha (two-fold field concentration, […]), 420 g ai/ha (four-fold field concentration, 4×), and 0 g ai/ha (water, 0×)), to determine the tolerance of Arabidopsis thaliana to the herbicides. The degree of damage caused by the herbicide was measured for each plant according to the proportion of bleached leaf area (the proportion of bleached leaf area=bleached leaf area/total leaf area×100%) 7 days after spraying (7 DAT): the case where there is basically no bleached phenotype is defined as grade 0, the case where the proportion of bleached leaf area is less than 50% is defined as grade 1, the case where the proportion of bleached leaf area is more than 50% is defined as grade 2, and the case where the proportion of bleached leaf area is 100% grade is defined as grade 3.
According to the method as described above in point 6 of Example 1, the aforementioned Arabidopsis thaliana T1 plants and wild-type Arabidopsis thaliana plants (CK) (18 days after sowing) were sprayed respectively with topramezone at three concentrations (25 g ai/ha (one-fold field concentration, 1×). 100 g ai/ha (four-fold field concentration, 4×), and 0 g ai/ha (water, 0×)), isoxaflutole at three concentrations (35 g ai/ha (half-fold field concentration, 0.5×). 70 g ai/ha (one-fold field concentration, 1×), and 0 g ai/ha (water, 0×)), and mesotrione at three concentrations (52.5 g ai/ha (half-fold field concentration, 0.5×), 105 g ai/ha (one-fold field concentration, 1×), and 0 g ai/ha (water, 0×)) to detect the tolerance of Arabidopsis thaliana to the herbicides.
According to the method as described above in point 6 of Example 1, the aforementioned Arabidopsis thaliana T1 plants and wild-type Arabidopsis thaliana plants (CK) (18 days after sowing) were sprayed with topramezone at three different concentrations (i.e., 100 g ai/ha (four-fold field concentration, 4×), 200 g ai/ha (eight-fold field concentration, 8×) and 0 g ai/ha (water, 0×)), isoxaflutole at three different concentrations (i.e., 140 g ai/ha (two-fold field concentration, 2×), 280 g ai/ha (four-fold field concentration, 4×) and 0 g ai/ha (water, 0×)), and mesotrione at three different concentrations (i.e., 210 g ai/ha (two-fold field concentration, 2×), 420 g ai/ha (four-fold field concentration, 4×) and 0 g ai/ha (water, 0×)) respectively to detect the herbicide tolerance of Arabidopsis thaliana. […]

[2] = tested on: Arabidopsis thaliana T1 plants; experiment: Isoxaflutole tolerance of transgenic Arabidopsis thaliana T1 plants (spray, bleached leaf area grade, damage score); settings: for Resistance evaluation / Classification and statistics of the grade of pesticide damage: Grade 0 / Classification and statistics of the grade of pesticide damage: Grade 1 / Classification and statistics of the grade of pesticide damage: Grade 2 / Classification and statistics of the grade of pesticide damage: Grade 3 / Scores: 7 DAT, Table 2; for Classification and statistics of the grade of pesticide damage: Grade 0 / Classification and statistics of the grade of pesticide damage: Grade 1 / Classification and statistics of the grade of pesticide damage: Grade 2 / Classification and statistics of the grade of pesticide damage: Grade 3: number of plants; for Scores: pesticide damage score 0-100;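 for Scores: Weighted damage index from 0 to 100 where higher means more damage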
Procedure, shortened: (§1)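 Damage graded 0–3 from the proportion of bleached leaf area 7 days after spraying. Plants were glufosinate-selected T1 lines, 18 days after sowing, plus vector and wild-type controls. Rates: mesotrione 52.5–420, isoxaflutole 35–280, topramezone 25–200 g ai/ha, with water (0×).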

[3] = tested on: Arabidopsis thaliana T1 plants; experiment: Mesotrione tolerance of transgenic Arabidopsis thaliana T1 plants (spray, bleached leaf area grade, damage score); set-up: Scores: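 damage score 0-100 computed as Σ(N×S)/(T×M)×100 over grades 0-3 with higher meaning more damage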; settings: for Resistance evaluation / Classification and statistics of the grade of pesticide damage: Grade 0 / Classification and statistics of the grade of pesticide damage: Grade 1 / Classification and statistics of the grade of pesticide damage: Grade 2 / Classification and statistics of the grade of pesticide damage: Grade 3 / Scores: 7 DAT, Table 3; for Classification and statistics of the grade of pesticide damage: Grade 0 / Classification and statistics of the grade of pesticide damage: Grade 1 / Classification and statistics of the grade of pesticide damage: Grade 2 / Classification and statistics of the grade of pesticide damage: Grade 3: number of plants; for Scores: pesticide damage score 0-100
Procedure, shortened: as §1

[4] = mesotrione 210 g ai/ha (two-fold field concentration)

B1: AsHPPDm-F372A-F383W-02: nucleotide sequence encoding Avena sativa HPPD with F372A+F383W; vector DBN11726 (nucleic acid)
DNA: ATGCCACCTACTCCAGCTACAGCTACTGGTGCTGCTGCTGCTGCCGTTACTCCTGAGCACGCTGCCAGGTCATTCCCCAGGGTGGTTCGCGTGAACCCCAGATCTGATAGGTTCCCAGTTCTGAGCTTCCACCATGTTGAGCTGTGGTGCGCTGATGCTGCTTCTGCTGCTGGCAGGTTCTCTTTCGCTCTTGGTGCTCCACTCGCTGCTAGATCTGATCTGTCTACAGGAAATAGCGCTCATGCCTCACTCCTGCTTCGCTCAGGTGCTTTGGCCTTCCTCTTCACCGCTCCATATGCTCCCCCACCTCAGGAGGCTGCTACTGCTGCTGCTACAGCCTCCATTCCAAGCTTCTCAGCTGATGCCGCTAGAACCTTCGCTGCTGCTCATGGACTTGCCGTGAGGTCTGTTGGTGTTCGCGTGGCTGATGCTGCTGAGGCTTTCAGAGTTTCCGTTGCCGGCGGAGCTAGGCCAGCTTTCGCTCCTGCTGATTTGGGACATGGTTTCGGCCTGGCTGAGGTTGAGCTTTACGGTGACGTGGTTCTCCGCTTCGTGTCTTACCCAGATGAGACTGACCTGCCTTTCCTTCCCGGCTTCGAGAGAGTTTCCTCTCCTGGTGCCGTGGATTACGGCCTGACAAGGTTCGACCACGTGGTTGGAAACGTTCCCGAGATGGCTCCAGTGATCGATTACATGAAGGGCTTCCTTGGATTCCATGAGTTCGCCGAGTTCACTGCTGAGGACGTGGGAACCACTGAGTCCGGTTTGAACTCTGTGGTTCTCGCCAACAATTCTGAGGCTGTTTTGCTCCCTCTGAATGAGCCTGTGCATGGAACCAAGAGGAGAAGCCAGATTCAAACTTACCTGGAGTACCACGGTGGCCCTGGAGTTCAGCATATCGCCCTTGCTTCTAATGATGTGTTGCGCACACTCAGAGAGATGCGCGCCAGAACCCCCATGGGAGGTTTCGAGTTCATGGCCCCACCACAGGCTAAGTACTACGAGGGCGTTAGAAGGATTGCTGGAGACGTGTTGAGCGAGGAGCAGATCAAGGAGTGCCAAGAGCTGGGTGTTCTTGTGGATAGGGATGACCAGGGCGTTCTGCTTCAAATTGCCACTAAGCCAGTGGGCGACCGCCCTACATTCTGGCTTGAGATGATTCAAAGAATCGGCTGCATGGAGAAGGATGAGGTTGGACAGGAGTACCAAAAGGGCGGATGCGGTGGCTTCGGAAAGGGTAACTTCAGCGAGTTGTTCAAGTCAATCGAGGACTACGAGAAGAGCCTCGAGGTGAAGCAGTCAGTGGTTGCCCAAAAGTCCTGA
modifications: AsHPPDm-F372A-F383W-02 Nucleotide Sequence
notes: vector DBN11726
- Classification and statistics of the grade of pesticide damage: Grade 0 ([1]; topramezone 100 g ai/ha (4×)): 16
- Classification and statistics of the grade of pesticide damage: Grade 1 ([1]; topramezone 100 g ai/ha (4×)): 0
- Classification and statistics of the grade of pesticide damage: Grade 2 ([1]; topramezone 100 g ai/ha (4×)): 0
- Classification and statistics of the grade of pesticide damage: Grade 3 ([1]; topramezone 100 g ai/ha (4×)): 0
- Classification and statistics of the grade of pesticide damage: Grade 0 ([1]; topramezone 200 g ai/ha (8×)): 16
- Classification and statistics of the grade of pesticide damage: Grade 1 ([1]; topramezone 200 g ai/ha (8×)): 0
- Classification and statistics of the grade of pesticide damage: Grade 2 ([1]; topramezone 200 g ai/ha (8×)): 0
- Classification and statistics of the grade of pesticide damage: Grade 3 ([1]; topramezone 200 g ai/ha (8×)): 0
- Scores ([1]; topramezone 100 g ai/ha (4×)): 0
- Scores ([1]; topramezone 200 g ai/ha (8×)): 0
- Resistance evaluation ([1]; topramezone 100 g ai/ha (4×)): highly resistant (highly resistant plants (scores 0-15))
- Resistance evaluation ([1]; topramezone 200 g ai/ha (8×)): highly resistant (highly resistant plants (scores 0-15))
- tolerance to topramezone (resistance class) ([1]; topramezone at four-fold or eight-fold field concentration): highly-resistant
- tolerance to isoxaflutole (in words) ([2]; in vivo): different degrees of tolerance
- Resistance evaluation ([2]; isoxaflutole 140 g ai/ha (2×)): highly resistant (highly resistant plants (scores 0-15))
- Resistance evaluation ([2]; isoxaflutole 280 g ai/ha (4×)): highly resistant (highly resistant plants (scores 0-15))
- tolerance to isoxaflutole (resistance class) ([2]; isoxaflutole at four-fold field concentration): highly-resistant
- tolerance to isoxaflutole (resistance class) ([2]; isoxaflutole at two-fold field concentration): highly-resistant
- Classification and statistics of the grade of pesticide damage: Grade 0 ([2]; isoxaflutole 140 g ai/ha (2×)): 16
- Classification and statistics of the grade of pesticide damage: Grade 1 ([2]; isoxaflutole 140 g ai/ha (2×)): 0
- Classification and statistics of the grade of pesticide damage: Grade 2 ([2]; isoxaflutole 140 g ai/ha (2×)): 0
- Classification and statistics of the grade of pesticide damage: Grade 3 ([2]; isoxaflutole 140 g ai/ha (2×)): 0
- Classification and statistics of the grade of pesticide damage: Grade 0 ([2]; isoxaflutole 280 g ai/ha (4×)): 12
- Classification and statistics of the grade of pesticide damage: Grade 1 ([2]; isoxaflutole 280 g ai/ha (4×)): 4
- Classification and statistics of the grade of pesticide damage: Grade 2 ([2]; isoxaflutole 280 g ai/ha (4×)): 0
- Classification and statistics of the grade of pesticide damage: Grade 3 ([2]; isoxaflutole 280 g ai/ha (4×)): 0
- Scores ([2]; isoxaflutole 140 g ai/ha (2×)): 0
- Scores ([2]; isoxaflutole 280 g ai/ha (4×)): 8
- tolerance to mesotrione (in words) ([3]; in vivo): different degrees of tolerance
- Resistance evaluation [3, 4]: highly resistant (highly resistant plants (scores 0-15))
- Resistance evaluation ([3]; mesotrione 420 g ai/ha (4×)): highly resistant (highly resistant plants (scores 0-15))
- tolerance to mesotrione (resistance class) ([3]; mesotrione at four-fold field concentration): highly-resistant
- tolerance to mesotrione (resistance class) ([3]; mesotrione at two-fold field concentration): highly-resistant
- Classification and statistics of the grade of pesticide damage: Grade 0 [3, 4]: 16
- Classification and statistics of the grade of pesticide damage: Grade 1 [3, 4]: 0
- Classification and statistics of the grade of pesticide damage: Grade 2 [3, 4]: 0
- Classification and statistics of the grade of pesticide damage: Grade 3 [3, 4]: 0
- Classification and statistics of the grade of pesticide damage: Grade 0 ([3]; mesotrione 420 g ai/ha (4×)): 15
- Classification and statistics of the grade of pesticide damage: Grade 1 ([3]; mesotrione 420 g ai/ha (4×)): 1
- Classification and statistics of the grade of pesticide damage: Grade 2 ([3]; mesotrione 420 g ai/ha (4×)): 0
- Classification and statistics of the grade of pesticide damage: Grade 3 ([3]; mesotrione 420 g ai/ha (4×)): 0
- Scores [3, 4]: 0
- Scores ([3]; mesotrione 420 g ai/ha (4×)): 2
